Results: US20250170316A1

Molecular target: complement factor H present in serum (human) (UniProt P08603)
Test: cell-based or functional assay

Sequence of UniProt P08603 (P08603 19-1231 limits assumed): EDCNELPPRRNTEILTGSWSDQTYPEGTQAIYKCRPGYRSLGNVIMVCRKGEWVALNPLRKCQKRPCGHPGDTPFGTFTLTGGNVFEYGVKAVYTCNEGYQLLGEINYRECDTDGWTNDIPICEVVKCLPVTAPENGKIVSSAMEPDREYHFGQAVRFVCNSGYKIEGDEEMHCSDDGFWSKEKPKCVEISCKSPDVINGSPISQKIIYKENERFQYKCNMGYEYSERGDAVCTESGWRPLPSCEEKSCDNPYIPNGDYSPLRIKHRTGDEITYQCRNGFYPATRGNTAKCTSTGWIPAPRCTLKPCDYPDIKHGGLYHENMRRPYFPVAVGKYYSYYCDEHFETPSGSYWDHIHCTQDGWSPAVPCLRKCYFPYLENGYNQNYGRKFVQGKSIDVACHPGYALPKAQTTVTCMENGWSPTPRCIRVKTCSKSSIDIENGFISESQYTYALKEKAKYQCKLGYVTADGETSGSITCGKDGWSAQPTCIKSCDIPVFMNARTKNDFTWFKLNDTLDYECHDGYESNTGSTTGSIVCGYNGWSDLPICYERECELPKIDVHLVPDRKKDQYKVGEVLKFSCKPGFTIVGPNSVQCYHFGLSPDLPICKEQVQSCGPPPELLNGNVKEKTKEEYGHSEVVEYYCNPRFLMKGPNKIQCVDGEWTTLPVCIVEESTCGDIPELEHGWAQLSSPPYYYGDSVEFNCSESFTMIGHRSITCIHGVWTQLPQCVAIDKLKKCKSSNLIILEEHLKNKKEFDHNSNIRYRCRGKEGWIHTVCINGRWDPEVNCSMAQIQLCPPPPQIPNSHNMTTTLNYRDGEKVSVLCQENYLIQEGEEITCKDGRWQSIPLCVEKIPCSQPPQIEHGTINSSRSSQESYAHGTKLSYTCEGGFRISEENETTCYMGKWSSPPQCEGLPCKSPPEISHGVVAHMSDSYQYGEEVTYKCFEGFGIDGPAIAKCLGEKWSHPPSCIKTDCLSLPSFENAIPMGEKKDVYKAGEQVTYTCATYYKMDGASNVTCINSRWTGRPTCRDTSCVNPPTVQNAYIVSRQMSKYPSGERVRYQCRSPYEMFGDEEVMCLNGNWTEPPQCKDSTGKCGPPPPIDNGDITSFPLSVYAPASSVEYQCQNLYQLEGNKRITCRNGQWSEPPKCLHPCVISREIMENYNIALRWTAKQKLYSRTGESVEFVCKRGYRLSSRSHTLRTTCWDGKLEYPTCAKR

PspCN (residues 37-140 of pneumococcal surface protein C, PspC, of Streptococcus pneumoniae strain D39)
inhibition of acidified serum lysis of PNH-like (AET-treated) erythrocytes, IC50: 27 nM
